A word on the EC50: it is the concentration at which the effect is half-maximal. High values mean a need for much substance, low ones an effect from little substance. Broadly, the Kd is the concentration at which binding is half-saturated. As usually defined, the koff is the first-order rate constant of dissociation. The term kon denotes the rate constant with which the complex forms.

The target of test [1] is T1, human Nectin-4-eGFP on T24 cells (clone 3) (human, UniProt Q96NY8 32-510).
T1 sequence: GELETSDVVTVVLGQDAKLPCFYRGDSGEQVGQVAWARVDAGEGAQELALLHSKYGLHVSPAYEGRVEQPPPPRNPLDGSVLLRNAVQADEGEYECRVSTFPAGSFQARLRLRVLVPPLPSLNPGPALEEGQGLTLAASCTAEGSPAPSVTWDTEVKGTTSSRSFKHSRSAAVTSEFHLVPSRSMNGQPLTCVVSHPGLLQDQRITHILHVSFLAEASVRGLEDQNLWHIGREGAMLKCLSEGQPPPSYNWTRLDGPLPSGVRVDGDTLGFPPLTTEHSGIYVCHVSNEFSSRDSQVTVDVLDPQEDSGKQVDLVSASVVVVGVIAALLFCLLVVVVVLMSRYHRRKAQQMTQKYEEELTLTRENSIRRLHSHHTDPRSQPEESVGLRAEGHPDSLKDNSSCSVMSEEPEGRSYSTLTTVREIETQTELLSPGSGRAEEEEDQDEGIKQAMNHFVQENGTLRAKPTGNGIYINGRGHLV
The test is described as follows: cell-based or functional assay.

The target of test [2] is T2, human nectin-4 on cells (human, UniProt Q96NY8 32-510).
T2 construct: also called Nectin-4 receptor
T2 sequence: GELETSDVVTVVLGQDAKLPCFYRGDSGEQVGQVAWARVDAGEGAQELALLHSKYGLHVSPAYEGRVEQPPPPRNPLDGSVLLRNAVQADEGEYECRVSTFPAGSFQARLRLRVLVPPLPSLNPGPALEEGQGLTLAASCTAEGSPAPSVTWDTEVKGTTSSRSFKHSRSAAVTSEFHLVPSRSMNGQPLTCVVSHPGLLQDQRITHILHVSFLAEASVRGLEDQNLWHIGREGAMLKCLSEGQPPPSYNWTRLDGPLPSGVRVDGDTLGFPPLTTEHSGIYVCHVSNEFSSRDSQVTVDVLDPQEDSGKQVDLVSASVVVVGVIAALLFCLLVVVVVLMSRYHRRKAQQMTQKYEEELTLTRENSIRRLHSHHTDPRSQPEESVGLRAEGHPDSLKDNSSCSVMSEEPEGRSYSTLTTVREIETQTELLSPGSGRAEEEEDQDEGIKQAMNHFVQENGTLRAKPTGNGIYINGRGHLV
Put plainly: flow cytometry, NCI-H1781 cells (low endogenous nectin-4). On the technique in general: Flow cytometry measures light scatter and fluorescence of single cells or particles in a stream.

The target in test [3] is T2, human nectin-4 on cells. Put plainly: flow cytometry, SUM190PT cells (high endogenous nectin-4).
Test [4] addresses T2, human nectin-4 on cells. The test is described as follows: flow cytometry, differentiated normal human epidermal keratinocytes (HEKα).
Test [5] deals with T2, human nectin-4 on cells. Put plainly: cell-based or functional assay.
The target of test [6] is T3, recombinant HIS-tagged human nectin-4 (Acro Biosystems Cat. No. NE4-H52H3) (human, UniProt Q96NY8 32-349).
T3 construct: Bought protein; not shown: HIS tag
T3 sequence: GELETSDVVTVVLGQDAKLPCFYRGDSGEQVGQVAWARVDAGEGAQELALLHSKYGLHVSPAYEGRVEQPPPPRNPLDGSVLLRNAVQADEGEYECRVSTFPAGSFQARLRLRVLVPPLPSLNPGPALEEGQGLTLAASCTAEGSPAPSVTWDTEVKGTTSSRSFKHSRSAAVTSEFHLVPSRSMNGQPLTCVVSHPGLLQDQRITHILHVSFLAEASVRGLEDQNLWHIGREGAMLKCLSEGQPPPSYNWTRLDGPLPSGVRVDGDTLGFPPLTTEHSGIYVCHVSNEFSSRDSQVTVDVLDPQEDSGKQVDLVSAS
The test is described as follows: SPR Biacore 8K+, ADC captured via anti-human Fc, nectin-4 analyte, 37 C.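 Further: Nectin-4 injected over captured ADC at 0 to 600 nM for 2 min association, then 10 min dissociation, with a reference flow cell lacking ADC.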 On the technique in general: Surface plasmon resonance follows binding to a sensor surface in real time, without labels.

For test [7], the target named is T4, recombinant HIS-tagged cyno nectin-4 (Acro Biosystems Cat. No. NE4-C52H4) (cyno, UniProt A0A2K5WES1 32-349).
T4 construct: Bought protein; HIS tag not described
T4 sequence: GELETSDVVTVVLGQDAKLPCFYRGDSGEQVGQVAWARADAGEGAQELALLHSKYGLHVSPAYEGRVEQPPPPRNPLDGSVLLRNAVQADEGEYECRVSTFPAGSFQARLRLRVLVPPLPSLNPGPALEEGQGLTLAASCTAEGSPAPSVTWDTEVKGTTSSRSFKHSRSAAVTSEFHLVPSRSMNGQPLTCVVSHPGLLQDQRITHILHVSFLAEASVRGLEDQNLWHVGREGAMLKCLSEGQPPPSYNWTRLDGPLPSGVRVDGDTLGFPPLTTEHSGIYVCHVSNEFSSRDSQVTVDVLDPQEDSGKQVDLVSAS
Described as above.

In test [8] the target is T5, recombinant HIS-tagged rat nectin-4 (R&D Systems Cat. No. 9997-N4-050) (rat, UniProt D3ZET1 31-348).
T5 construct: Bought protein; HIS tag not described
T5 sequence: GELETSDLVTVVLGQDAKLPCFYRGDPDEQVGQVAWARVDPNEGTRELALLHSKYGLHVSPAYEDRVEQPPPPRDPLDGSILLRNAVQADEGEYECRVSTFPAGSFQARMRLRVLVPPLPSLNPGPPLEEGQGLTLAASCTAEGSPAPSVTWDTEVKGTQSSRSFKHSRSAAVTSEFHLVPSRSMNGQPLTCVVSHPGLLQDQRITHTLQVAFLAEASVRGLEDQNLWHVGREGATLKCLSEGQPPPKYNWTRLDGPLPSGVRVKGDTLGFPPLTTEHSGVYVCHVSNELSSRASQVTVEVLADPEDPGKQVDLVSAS
The description is as above.

B1: Ab2 (antibody, human IgG1, kappa, L234A L235A, V domains shown)
VH: EVQLVESGGGLVQPGGSLRLSCAASGFTFSSYDMHWVRQATGKGLEWVSAIGTVGDTYYPGSVKGRFTISRENAKNSLYLQMNSLRAGDTAVYYCAREWNGMDVWGQGTTVTVSS
VL: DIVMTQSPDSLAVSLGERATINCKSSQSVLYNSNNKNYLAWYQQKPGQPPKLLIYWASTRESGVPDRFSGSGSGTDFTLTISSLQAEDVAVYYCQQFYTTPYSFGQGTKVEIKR
notes: Unconjugated antibody; also called Antibody 2; nectin-4 antibody Ab2
As to B1, in test [1], the “% activity (max GFP signal loss compared to enfortumab mAb (100%))” value amounted to 113% and the “EC50 (nM) of nectin-4-eGFP signal loss” value was 1.43 nM. Also, in the test with human nectin-4 on cells [2], the “% of enfortumab (Average Max MFI)” value was 95.7%, the “Average Max MFI” value was 87000 MFI and the EC50 amounted to 0.06 nM. For the same molecule, in the test with human nectin-4 on cells [3], the “% of enfortumab (Average Max MFI)” value was found to be 87.2%, the “Average Max MFI” value was found to be 920000 MFI and the 50% effective concentration (EC50) was 0.19 nM. Besides, the midpoint of the response with human nectin-4 on cells [4], the EC50, lay at 0.05 nM.

B2: Ab2 ADC (Ab2 conjugated as in Formula XI, DAR of 8) (antibody, human IgG1, kappa, L234A L235A, V domains shown)
VH: EVQLVESGGGLVQPGGSLRLSCAASGFTFSSYDMHWVRQATGKGLEWVSAIGTVGDTYYPGSVKGRFTISRENAKNSLYLQMNSLRAGDTAVYYCAREWNGMDVWGQGTTVTVSS
VL: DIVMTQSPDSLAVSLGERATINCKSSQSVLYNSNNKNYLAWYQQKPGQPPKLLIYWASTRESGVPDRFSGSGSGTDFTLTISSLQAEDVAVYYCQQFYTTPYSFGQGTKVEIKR
modifications: camptothecin analog linker-payload of Formula XI on cysteine thiols after full reduction, DAR of 8 per antibody; positions not given
notes: Antibody-drug conjugate of Ab2; also called Ab2 (ADC column)
Take B2: in test [1], the “% activity (max GFP signal loss compared to enfortumab mAb (100%))” value is 132% and the “EC50 (nM) of nectin-4-eGFP signal loss” value came out at 1.96 nM. In the test with human nectin-4 on cells [5], the “Cytotoxicity IC50, NCI H1781 cells” value is 0.0473 nM and the “Cytotoxicity IC50, T24 Nectin-4 clone 108 cells” value was 0.07 nM. In test [6], the Kd was 21 nM, the off-rate constant (koff) was determined as 0.0214 s⁻¹ and the kon came to 1.02e+06 M⁻¹ s⁻¹. Moreover, in test [7], the Kd was 19.8 nM, the koff was found to be 0.02 s⁻¹ and the kon came out at 1.01e+06 M⁻¹ s⁻¹. For the same molecule, in test [8], the dissociation constant (Kd) is 108 nM, the koff came out at 0.0753 s⁻¹ and the kon stood at 695000 M⁻¹ s⁻¹. The molecule further gave a 50% effective concentration (EC50) with human nectin-4 on cells [4] of 0.05 nM.

For the origin of these results see US20250000991A1 (Eli Lilly, published 2025).
